Where a chain is given by its changes, count along the chain named.
T1: Cas1-2 integrase complex Wt (Escherichia coli (type I-E), UniProt Q46896;P45956 1-305;1-94)
T1 sequence 1: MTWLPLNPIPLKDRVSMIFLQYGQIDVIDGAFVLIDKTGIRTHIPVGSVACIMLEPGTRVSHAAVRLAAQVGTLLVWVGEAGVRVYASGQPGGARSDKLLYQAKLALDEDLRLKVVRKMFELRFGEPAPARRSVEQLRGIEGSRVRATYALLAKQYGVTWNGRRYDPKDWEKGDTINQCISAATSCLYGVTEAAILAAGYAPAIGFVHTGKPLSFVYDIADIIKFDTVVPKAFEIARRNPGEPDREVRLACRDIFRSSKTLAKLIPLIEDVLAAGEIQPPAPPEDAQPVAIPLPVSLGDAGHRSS
T1 sequence 2: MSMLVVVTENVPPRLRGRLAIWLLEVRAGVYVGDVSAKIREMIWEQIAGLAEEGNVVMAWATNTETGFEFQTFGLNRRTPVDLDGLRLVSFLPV

T2: Cas1-2 Y22A (Escherichia coli (type I-E), UniProt Q46896;P45956 1-305;1-94, Y22A)
T2 sequence 1: T1 sequence 1 with Y22A
T2 sequence 2: T1 sequence 2

B1: P23[3'-10] (dsDNA)
DNA 1: ATTTACTACTCGTTCTGGTGTTTCTCGTCAGGG
DNA 2: AAACACCAGAACGAGTAGTAAATTGGGCTTGAG
B2: P63mPAMT* (dsDNA)
DNA 1: CTCCGCGCTGTAGCCCTCACCACTGTTGTGCACGACGACACCAGTCCGTGGCGTTATCCAGCT
DNA 2: AGCTGGATAACGCCACGGACTGGTGTCGTCGTGCACAACAGTGGTGAGGGCTACAGCGCGGAG
B3: P63 (dsDNA)
DNA 1: B2 DNA 1 with C14A, C15A, C16G, C23T, C41T, G44T
DNA 2: B2 DNA 2 with C20A, G23A, G41A, G48C, G49T, G50T
B4: P63mPAMB* (dsDNA)
DNA 1: B2 DNA 1
DNA 2: B2 DNA 2
B5: P23[3'-5] (dsDNA)
DNA 1: ATTTACTACTCGTTCTGGTGTTTCTCGT
DNA 2: AAACACCAGAACGAGTAGTAAATTGGGC
B6: P33 (dsDNA)
DNA 1: GCCCAATTTACTACTCGTTCTGGTGTTTCTCGT
DNA 2: ACGAGAAACACCAGAACGAGTAGTAAATTGGGC

Assays:
[1] = molecular target: T1, Cas1-2 integrase complex Wt; test: EMSA
[2] = molecular target: T1, Cas1-2 integrase complex Wt; test: T5 exonuclease footprinting
Cas1-2 Y22A = molecular target: T2, Cas1-2 Y22A; test: EMSA

Binder | Kd [1] [nM] | binding result [2] | Kd (Cas1-2 Y22A) [nM]
B1 | 286 | – | –
B2 | – | binds | –
B3 | 831 | – | 6220
B4 | – | binds | –
B5 | 254 | – | –
B6 | 2660 | – | –

From publication doi:10.1101/602623
